Tested on: Huh7 cells
Assay: Plasma membrane retention of full-length MOG in transformed Huh7 cells
Format: cell-based
Conditions: 72 hr post-transfection, leaders WT, Sp7, HC7s
Experimental: To examine the secretability of the full-length MOG protein the plasma membrane and cell lysate and media of transformed Huh7 cells were examined for MOG expression. Huh7 cells were grown to ˜80% confluency and transformed using plasmids expressing full-length myelin oligodendrocyte glycoprotein (MOG) with various leader sequences: Wildtype (WT; native MOG leader), human chymotrypsinogen B2 signal peptide (“Sp7”; 18 amino acid signal peptide of NCBI reference sequence NP_001020371), or a combination of WT with the heavy chain 7 sequence (HC7s; Haryadi et al., PloS ONE 10(2): e0116878. doi:10.1371/journal.pone.0116878 (2015)). Cells and media were harvested 72 hr post-transfection. Plasma membrane fractions from cells were enriched as described (Nishiumi et al., Biosci. Biotechnol. Biochem. 71 (9), 2343-2346, (2007)) Briefly, cells were harvested in modified Buffer A (50 mM Tris, 0.5 mM DTT) with protease inhibitors (cOmplete™ tablets, Roche) and 0.1% Triton X100. The cells were sheared by passage through a 25-gauge needle; 3 times. The homogenate was centrifuged for 10 min at 1000×g at 4° C. The supernatant was harvested as post-plasma membrane (PPM) fraction. […] Standard WES parameters were used, and samples were analyzed on Compass Software (ProteinSimple).

B1: full-length MOG: full-length myelin oligodendrocyte glycoprotein expressed from plasmids with WT, Sp7 or HC7s leader sequences (protein, UniProt Q16653 1-247, looked up)
chain: MASLSRPSLPSCLCSFLLLLLLQVSSSYAGQFRVIGPRHPIRALVGDEVELPCRISPGKNATGMEVGWYRPPFSRVVHLYRNGKDQDGDQAPEYRGRTELLKDAIGEGKVTLRIRNVRFSDEGGFTCFFRDHSYQEEAAMELKVEDPFYWVSPGVLVLLAVLPVLLLQITVGLIFLCLQYRLRGKLRAEIENLHRTFDPHFLRVPCWKITLFVIVPVLGPLVALIICYNWLHRRLAGQFLEELRNPF
modifications: full-length
With B1 the “localisation of full-length MOG (plasma membrane vs cell lysate and media)” value was “retained in the plasma membrane” and the “localisation of full-length MOG (plasma membrane vs cell lysate and media)” value (listed as Mature MOG) was “enriched in the plasma membrane”.

Source: patent publication US20230040275A1, “SECRETABLE PROTEIN INDUCED IMMUNE TOLERIZATION AND TREATMENT OF AUTOIMMUNE, ALLERGIC AND OTHER DISEASES AND DISORDERS” (SPARK THERAPEUTICS, INC., priority 2019, published 2023)
